These results are taken from article PMC10993188, “RAD51 separation of function mutation disables replication fork maintenance but preserves DSB repair”.

Data set [1] deals with T1, RAD51 WT (Homo sapiens, UniProt Q06609 1-339). Put plainly: stopped-flow PIFE; no Ex27; EMSA: 10 mM Tris-HCl pH 7.5, 10 mM KCl, 1 mM MgCl2, 1 mM ATP, 1 mM DTT, 25 C, 25 nM DNA, 1.1 uM RAD51; BLI: 50 mM Tris-HCl pH 7.5, 50 mM KCl, 5 mM MgCl2, 2 mM ATP, 0.05% Tween 20, 15 nM DNA; stopped-flow buffer not in material. Conditions: protein: recombinant; chain copies: 10; label: 5' Cy3; single strand.
T1 sequence (Q06609 whole entry): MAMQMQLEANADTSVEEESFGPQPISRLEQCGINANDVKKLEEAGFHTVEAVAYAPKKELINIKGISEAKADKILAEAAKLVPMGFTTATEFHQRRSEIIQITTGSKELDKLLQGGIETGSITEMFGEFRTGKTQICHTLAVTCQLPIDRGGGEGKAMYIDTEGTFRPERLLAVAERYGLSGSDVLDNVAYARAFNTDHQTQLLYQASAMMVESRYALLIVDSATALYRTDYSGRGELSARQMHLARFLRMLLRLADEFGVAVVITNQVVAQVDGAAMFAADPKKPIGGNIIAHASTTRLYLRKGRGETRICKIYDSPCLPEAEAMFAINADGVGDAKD

The target in data set [2] is T2, RAD51 S181P (SP) (Homo sapiens, UniProt Q06609 1-339, S181P). The data set can be described thus: stopped-flow PIFE; no Ex27; similar mechanism to WT, slower assembly at suboptimal concentrations; EMSA: 10 mM Tris-HCl pH 7.5, 10 mM KCl, 1 mM MgCl2, 1 mM ATP, 1 mM DTT, 25 C, 25 nM DNA, 1.1 uM RAD51; BLI: 50 mM Tris-HCl pH 7.5, 50 mM KCl, 5 mM MgCl2, 2 mM ATP, 0.05% Tween 20, 15 nM DNA; stopped-flow buffer not in material. The following applies: protein: recombinant; chain copies: 10; label: 5' Cy3; single strand.
T2 sequence (Q06609 whole entry S181P): as the sequence (Q06609 whole entry) above, with S181P counted along it

The target of data set [3] is T3, RAD51 WT;BRCA2 Ex27 peptide (TR2) (Homo sapiens;Homo sapiens, UniProt Q06609;P51587 1-339;, |). The data set can be described thus: stopped-flow PIFE; Ex27 increases amplitude and decreases binding rate; EMSA: 10 mM Tris-HCl pH 7.5, 10 mM KCl, 1 mM MgCl2, 1 mM ATP, 1 mM DTT, 25 C, 25 nM DNA, 1.1 uM RAD51; BLI: 50 mM Tris-HCl pH 7.5, 50 mM KCl, 5 mM MgCl2, 2 mM ATP, 0.05% Tween 20, 15 nM DNA; stopped-flow buffer not in material. The following applies: tags: ;; label: 5' Cy3; single strand.

The target in data set [4] is T2, RAD51 S181P (SP). The data set can be described thus: BLI; 2 mM ATP, 5 mM Mg2+; 2 uM RAD51; dissociated by GST-BRC4; EMSA: 10 mM Tris-HCl pH 7.5, 10 mM KCl, 1 mM MgCl2, 1 mM ATP, 1 mM DTT, 25 C, 25 nM DNA, 1.1 uM RAD51; BLI: 50 mM Tris-HCl pH 7.5, 50 mM KCl, 5 mM MgCl2, 2 mM ATP, 0.05% Tween 20, 15 nM DNA; stopped-flow buffer not in material. The following applies: protein: recombinant; chain copies: 10; label: 3' biotin; single strand.

Data set [5] deals with T1, RAD51 WT. The data set is described as above. The following applies: protein: recombinant; chain copies: 10; label: 3' biotin; single strand.
The target in data set [6] is T3, RAD51 WT;BRCA2 Ex27 peptide (TR2). Put plainly: EMSA super-shift; 5.7 uM Ex27, 1 mM ATP, 1 mM Mg2+; almost completely resistant to GST-BRC3; EMSA: 10 mM Tris-HCl pH 7.5, 10 mM KCl, 1 mM MgCl2, 1 mM ATP, 1 mM DTT, 25 C, 25 nM DNA, 1.1 uM RAD51; BLI: 50 mM Tris-HCl pH 7.5, 50 mM KCl, 5 mM MgCl2, 2 mM ATP, 0.05% Tween 20, 15 nM DNA; stopped-flow buffer not in material. Conditions: tags: ;; label: 5' FAM (FITC); single strand.

The target in data set [7] is T1, RAD51 WT. Put plainly: EMSA; 1 mM ATP, 1 mM Mg2+; no Ex27; complex disassembled by GST-BRC3; EMSA: 10 mM Tris-HCl pH 7.5, 10 mM KCl, 1 mM MgCl2, 1 mM ATP, 1 mM DTT, 25 C, 25 nM DNA, 1.1 uM RAD51; BLI: 50 mM Tris-HCl pH 7.5, 50 mM KCl, 5 mM MgCl2, 2 mM ATP, 0.05% Tween 20, 15 nM DNA; stopped-flow buffer not in material. Conditions: protein: recombinant; chain copies: 10; label: 5' FAM (FITC); single strand.

B1: Cy3-(dT)79 (ssDNA)
DNA: TTTTTTTTTTTTTTTTTTTTTTTTTTTTTTTTTTTTTTTTTTTTTTTTTTTTTTTTTTTTTTTTTTTTTTTTTTTTTTT
For B1, the binding result (in the data set with RAD51 WT [1]; with RAD51 S181P (SP) [2]; in data set [3]) was “binds” each time.

Turning to TTTTTTTTTTTTTTTTTTTTTTTTTTTTTTTTTTTTTTTTTTT (ssDNA) [oligo-dT 43-mer], the binding result in the data set with RAD51 S181P (SP) [4] and in the data set with RAD51 WT [5] was “binds” throughout.

B2: 5'FITC-90mer ssDNA (ssDNA)
DNA: AAATCAATCTAAAGTATATATGAGTAAACTTGGTCTGACAGTTACCAATGCTTAATCAGTGAGGCACCTATCTCAGCGATCTGTCTATTT
B2: the binding result (in data set [6]; in the data set with RAD51 WT [7]) was “binds” each time.
